Results reported in PMC8247607.

T1: MSL2 CXC domain (CXCvir) (Drosophila virilis, UniProt O76733 514-567)
T1 sequence: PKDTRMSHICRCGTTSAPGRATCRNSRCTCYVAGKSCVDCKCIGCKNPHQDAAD

B1: S12 (dsDNA)
DNA 1: ATGAGCGAGATG
DNA 2: CATCTCGCTCAT
B2: S12 mutant (dsDNA)
DNA 1: ATGAAAAAAATG
DNA 2: CATTTTTTTCAT

Target: T1, MSL2 CXC domain (CXCvir)
Assay: NMR 1H-15N HSQC titration

| Binder | Kd [nM] |
| --- | --- |
| B1 | 2800 |
| B2 | 2400 |
